Measured values published in patent US9314499.

Biological target: tissue plasminogen activator (human) (UniProt P00750)
Assay: cell-based or functional assay

UniProt P00750, sequence (P00750 36-562 limits assumed): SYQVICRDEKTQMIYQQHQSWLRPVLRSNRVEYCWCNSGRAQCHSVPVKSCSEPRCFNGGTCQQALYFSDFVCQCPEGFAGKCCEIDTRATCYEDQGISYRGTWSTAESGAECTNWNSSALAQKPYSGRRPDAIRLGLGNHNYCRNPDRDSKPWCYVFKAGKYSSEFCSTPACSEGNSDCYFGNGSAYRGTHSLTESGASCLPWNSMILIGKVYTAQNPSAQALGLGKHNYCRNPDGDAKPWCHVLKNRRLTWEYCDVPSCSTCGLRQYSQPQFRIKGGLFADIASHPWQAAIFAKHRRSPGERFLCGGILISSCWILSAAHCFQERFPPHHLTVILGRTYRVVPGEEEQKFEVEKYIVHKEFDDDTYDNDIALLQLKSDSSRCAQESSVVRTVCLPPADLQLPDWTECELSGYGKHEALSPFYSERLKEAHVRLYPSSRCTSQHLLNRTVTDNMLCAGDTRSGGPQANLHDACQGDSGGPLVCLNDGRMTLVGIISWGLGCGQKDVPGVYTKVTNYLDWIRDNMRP

- in vitro plasmin-generating capability of tPA (plasmin activity assay): 4 fold
Substance: Histidine-tagged recombinant human Annexin A2 (from UniProt Q3ZCQ2 1-193)
